{"source": "patent US12534533B2", "about": "“Anti-chemokine like receptor 1 humanized antibodies and their therapeutic applications” (OSE IMMUNOTHERAPEUTICS, priority 2019, dated 2026)", "key": {"[1]": {"tested_on": "lesions in the central nervous system induced by MOG peptide", "assay": "autoimmune encephalomyelitis experimental model (EAE)", "format": "in vivo", "from_the_text": "Lesions in the central nervous system were induced by injection of the immunogenic MOG peptide combined with adjuvants."}, "[2]": {"tested_on": "spontaneous type 1 diabetes in NOD mice", "assay": "type 1 diabetes NOD model", "format": "in vivo", "conditions": "20 μg/injection i.p. three times a week for 2 weeks", "from_the_text": "FIG. 5. Effect of an anti-CMKLR1 antibody on a mice type1 non-obese diabetes model. Mice develop spontaneous diabetes. […] A. Percentage of survival, B. individual representation of blood glucose concentration in mg/dL. C. pooled representation of blood glucose concentration in mg/dL.\n8 weeks-old NOD female mice were obtained from Charles River laboratory. These mice develop a spontaneous type 1 diabetes at age between 12 to 20 weeks. The diabetes initiation can be measured by the high glycaemia."}, "[3]": {"target": "T1, CMKLR1 receptor (CHO-K1 CMKLR1 Gi cells) (Homo sapiens, UniProt Q99788)", "T1 construct": "host or cells: CHO-K1", "T1 sequence (Q99788 1-373)": "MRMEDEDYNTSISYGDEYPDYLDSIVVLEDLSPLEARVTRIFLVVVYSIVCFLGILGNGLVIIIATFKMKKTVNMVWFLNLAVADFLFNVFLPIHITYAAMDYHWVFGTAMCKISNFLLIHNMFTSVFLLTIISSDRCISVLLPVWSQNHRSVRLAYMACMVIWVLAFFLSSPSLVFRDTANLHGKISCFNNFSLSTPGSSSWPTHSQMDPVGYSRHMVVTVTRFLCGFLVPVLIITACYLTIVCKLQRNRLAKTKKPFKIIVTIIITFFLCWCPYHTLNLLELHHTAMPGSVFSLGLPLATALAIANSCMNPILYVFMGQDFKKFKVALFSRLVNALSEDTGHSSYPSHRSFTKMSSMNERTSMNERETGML", "assay": "competition with Chemerin in the production of cAMP by CMKLR1 receptor", "format": "cell-based", "conditions": "antibody 1 μM to 1 nM, chemerin 2 nM; FIG. 18A", "procedure": "The day before the experiment CHO-K1 CMKLR1 Gi cells (Discover'X ref 95-0080C2) were plated in pre-warmed cell reagent then plated in a 96-well plate at 100 μl/well of cells as (Discover'X ref 15-103) and incubated 24 hours at 37° C., in a 5% CO2 humidified incubator for 24 hours.\nFor the detection cAMP, antibody reagent and cAMP working detection solution was added to the plate for 1 hour at room temperature, then cAMP solution A was added, and cells incubated 3 hours at room temperature in the dark. Bioluminescence was read with a plate reader with 0.5s integration."}, "[4]": {"target": "T2, CMKLR1 peptide (loop EL3 of CMKLR1, SEQ ID No: 60) (Homo sapiens, UniProt Q99788)", "T2 sequence (Q99788 275-307 limits assumed)": "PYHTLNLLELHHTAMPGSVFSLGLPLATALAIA", "assay": "ELISA binding on CMKLR1 peptide", "conditions": "compared to isotype control; FIG. 12", "procedure": "FIG. 12. Binding analysis of the anti-CMKLR1 antibody on a CMKLR1 peptide by ELISA. The binding of the 2G1 antibody (□) on the CMKLR1 EL3 loop (SEQ ID No: 18) was compared to the isotype control antibody (3G8) (x) by measuring the OD at 450 nm by ELISA.\nCMKLR1 peptide (273NH2-[…]-COOH305) (SEQ ID No: 60) (5 μg/ml) was coated in borate buffer overnight. Saturation was performed with PBS-Tween 0.1%-Gelatin 0.25% for 2 hours at 37° C. Then, 2G1 or hIgG1 antibodies were added at different concentrations for 2 hours at 37° C. […] The colorimetric reaction was read with TECAN."}, "[5]": {"tested_on": "chronic colitis after CD45Rbhigh CD4 T cell transfer in Rag1 knock-out mice", "assay": "CD45Rb high T-cell transfer chronic colitis model", "format": "in vivo", "procedure": "FIG. 19. Effect of an anti-CMKLR1 antibody in the CD45Rb^high T-cell transfer chronic colitis mouse model. A. Weight variation of treated animals was followed up to sixty days. Animals were treated with isotype control hIgG1 (x) or anti-CMKLR1 antibody (n). B. Histological staining of colon tissue in the mice treated with the anti-CMKLR1 (right) compared to control (left). C. Anatomic pathology scores used to calculate the severity of the pathology and the inflammation (inflammation score, vasculutis score, colon thickness and fibrotic colon wall). D. CD3 and Ly6G infiltration.\nMethod: CD45Rb^high CD4 T cells were isolated from the spleen of naive mice and sorted on an ARIA FACS after a negative selection of the CD4 T cells by magnetic sorting, then injected intraperitoneally at 0.5·10^6 cells in 100 μL of PBS into 6-weeks old female Rag1 knock-out mice. Anti-CMKLR1 antibody (2G1) or an isotype control were administered from day 32 after the CD45Rb^high CD4 T cell transfer for 3 weeks three times a week at 1 mg/kg. The follow-up of weight was evaluated three times a week and the weight variation was determined over the initial weight. * p<0.05, ** p<0.01."}, "[6]": {"tested_on": "peritonitis induced by Zymosan A", "assay": "peritonitis model (Zymosan A)", "format": "in vivo, mice", "conditions": "vs isotype control", "procedure": "FIG. 7. Effect of an anti-CMKLR1 antibody on a mice peritonitis model. Preventive injection of anti-CMKLR1 was performed before Zymosan A injection (1 mg per mouse in 1 mL): RvE1 (1 μg per mouse) (●), 2G1 antibody (10 μg per mouse) (□) or isotype control antibody (x). A. PMN numbered during the first 50 hours after Zymosan A injection. B. Macrophages numbered during the first 50 hours after Zymosan A injection. C. Resolution index.\nCommon peritonitis is induced by intraperitoneal injection of Zymosan A® (1 mg per mouse in 1 mL). Preventive injection of anti-CMKLR1 was performed 5 minutes before Zymosan A injection: RvE1 (1 μg per mouse), 2G1 antibody (10 μg per mouse). Murine peritoneal polymorphonuclear neutrophil (PMN) and macrophages were collected at 2-4-8-16-24 and 48 h after Zymosan A injection and numbered by flow cytometry analysis to determinate the resolution index (Bannenberg et al., 2005)."}}, "data": [{"molecule": "2G1: parental chimeric anti-CMKLR1 antibody: heavy chain variable domain SEQ ID No. 37, light chain variable domain SEQ ID No. 49 (antibody, V domains shown) VH: EVQLVASGGGLVQPGGSLKLSCAASGFTFSSYGMSWVRQTPDRRLELVATINRYGGSTYYPDSVKGRFTISRDNAKNTLYLQMSSLKSEDTAMYYCPRLIYYGNEGDSWGQGTTLTVSS VL: QIVLTQSPAIMSASPGEKVTMTCSASSSVSFMHWYQQKSGTSPKRWIYDTTKLTSGVPARFSGSGSGTFYSLTISSMEAEDAATYYCQQWNSKPPLTFGPGTKLELKR", "values": [{"measurement": "Weight variation overtime", "setting": "[1]; curative administration, 1 mg/kg from clinical score 2, FIG. 32A", "result": "does not lead to the reduction of the weight"}, {"measurement": "illness score lower than control", "setting": "[1]; ten-day posttreatment", "result": "approximately 30%"}, {"measurement": "illness score", "setting": "[1]; vs control antibody, FIG. 32B", "result": "significantly reduced"}, {"measurement": "Percentage of survival", "setting": "[2]; FIG. 5A", "result": "better survival percentage"}, {"measurement": "glycaemia (blood glucose concentration)", "setting": "[2]; FIG. 5B-C", "result": "almost normal glycaemia"}, {"measurement": "Chemerin-induced inhibition of forskolin-dependent cAMP production", "setting": "[3]", "result": "could not revert this inhibition of production"}, {"measurement": "binding on the CMKLR1 EL3 loop peptide (OD at 450 nm)", "setting": "[4]", "result": "able to bind the polypeptide forming the loop EL3 of CMKLR1"}, {"measurement": "Weight variation", "setting": "[5]; 1 mg/kg three times a week for 3 weeks from day 32, vs isotype control, FIG. 19A", "result": "continue to gain weight"}, {"measurement": "anatomic pathology scores, comprising inflammation scores", "setting": "[5]; FIG. 19C", "result": "lower"}, {"measurement": "colon tissue thickness", "setting": "[5]; histology, FIG. 19B", "result": "decrease of tissue thickness"}, {"measurement": "fibrotic tissue", "setting": "[5]; histology, FIG. 19B", "result": "decrease of fibrotic tissue"}, {"measurement": "PMNs number", "setting": "[6]; first 50 hours after Zymosan A, FIG. 7A", "result": "slightly less"}, {"measurement": "Macrophages number", "setting": "[6]; first 50 hours after Zymosan A, FIG. 7B", "result": "slightly less"}, {"measurement": "resolution index", "setting": "[6]; FIG. 7C", "result": "better resolution index"}]}]}
